Among the data in publication PMC8032985, “The Interaction Mechanism of Intrinsically Disordered PP2A Inhibitor Proteins ARPP-16 and ARPP-19 With PP2A” (Frontiers in Molecular Biosciences, 2021) are Kd values, retold here.

B4: PP2A regulatory subunit B56δ (natural protein)
chain: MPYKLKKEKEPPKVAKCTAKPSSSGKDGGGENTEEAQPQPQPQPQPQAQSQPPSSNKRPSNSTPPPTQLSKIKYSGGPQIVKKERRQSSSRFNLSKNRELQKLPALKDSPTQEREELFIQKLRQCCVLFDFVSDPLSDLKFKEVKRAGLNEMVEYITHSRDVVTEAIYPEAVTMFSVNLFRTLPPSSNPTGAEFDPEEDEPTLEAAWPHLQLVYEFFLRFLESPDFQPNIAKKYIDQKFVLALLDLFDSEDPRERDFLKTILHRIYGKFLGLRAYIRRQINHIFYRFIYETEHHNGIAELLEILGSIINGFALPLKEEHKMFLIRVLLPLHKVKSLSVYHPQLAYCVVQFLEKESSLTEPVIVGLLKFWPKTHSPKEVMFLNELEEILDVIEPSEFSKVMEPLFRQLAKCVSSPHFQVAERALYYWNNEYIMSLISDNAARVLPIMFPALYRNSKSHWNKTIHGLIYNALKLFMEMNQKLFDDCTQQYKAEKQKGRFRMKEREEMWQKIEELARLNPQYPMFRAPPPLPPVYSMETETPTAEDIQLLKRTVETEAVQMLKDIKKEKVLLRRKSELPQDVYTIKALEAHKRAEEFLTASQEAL
modifications: NT-647-NHS fluorescent dye (Monolith NT Protein labeling kit red NHS)
B5: PP2A regulatory subunit B56ε (natural protein)
chain: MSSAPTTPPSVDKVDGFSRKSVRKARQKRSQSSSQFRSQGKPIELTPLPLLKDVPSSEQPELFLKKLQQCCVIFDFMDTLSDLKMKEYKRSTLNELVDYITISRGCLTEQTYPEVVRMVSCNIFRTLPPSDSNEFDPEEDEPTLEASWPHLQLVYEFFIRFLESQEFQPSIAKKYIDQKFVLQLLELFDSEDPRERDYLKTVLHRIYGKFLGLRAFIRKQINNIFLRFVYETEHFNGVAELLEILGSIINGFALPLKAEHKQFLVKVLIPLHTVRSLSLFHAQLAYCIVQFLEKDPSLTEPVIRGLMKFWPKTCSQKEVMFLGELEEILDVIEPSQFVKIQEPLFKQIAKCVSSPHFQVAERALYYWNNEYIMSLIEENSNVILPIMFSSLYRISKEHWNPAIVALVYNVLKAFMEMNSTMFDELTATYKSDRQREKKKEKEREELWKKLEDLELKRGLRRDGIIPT
modifications: NT-647-NHS fluorescent dye (Monolith NT Protein labeling kit red NHS)

Holding throughout (assay): MST; NT-647-NHS-labelled PP2A subunit at 20 nM as target, 12-point twofold dilution series of unlabelled ARPP as ligand; SEC buffer with 0.05% Tween-20; triplicate; single-site binding model
What all share (conditions): both partners purified

The target of test [1] is B4.
Test [2] deals with B5.
The target in test [3] is PP2A regulatory subunit B56α (NT-647-NHS fluorescent dye (Monolith NT Protein labeling kit red NHS)).
The target in test [4] is T1, PP2A regulatory subunit B56γ (NT-647-NHS fluorescent dye (Monolith NT Protein labeling kit red NHS)).
T1 construct: one residue left at the N-terminus after TEV cleavage; PP2A regulatory subunit B56γ, UniProt Q13362-1; source: E. coli BL21 Gold, purified (glutathione agarose, TEV cleavage, SEC); not shown: GST, N-terminal, cleaved

Test [5] has as its target T2, PP2A scaffolding subunit PR65α, full length (UniProt P30153 1-589, NT-647-NHS fluorescent dye (Monolith NT Protein labeling kit red NHS) in the MST; unlabelled in the NMR titration).
T2 construct: PP2A scaffolding subunit PR65α, full length; pGTvL1-SGC vector, expressed and purified as the ARPP proteins; also called PP2A A-subunit; A-subunit; source: E. coli BL21 Gold, purified (glutathione agarose, TEV cleavage, SEC); not shown: GST, N-terminal, cleaved

The target of test [6] is T3, ARPP-16 (splice variant of ARPP-19), wild type (human, 15N-labelled in the NMR titration).
T3 construct: one residue left at the N-terminus after TEV cleavage; human ARPP-16, splice variant of ARPP-19 lacking its first 16 residues, UniProt P56211-2; numbers count on: ARPP-16 (P56211-2); pGTvL1-SGC vector; also called ARPP-16 WT; source: E. coli BL21 Gold, purified (glutathione agarose, TEV cleavage, SEC); not shown: GST, N-terminal, cleaved

For test [7], the target named is T4, ARPP-16 S46E phosphomimicking mutant (human).
T4 construct: one residue left at the N-terminus after TEV cleavage; human ARPP-16, UniProt P56211-2, with S46E; numbers count on: ARPP-16 (P56211-2); source: E. coli BL21 Gold, purified (glutathione agarose, TEV cleavage, SEC); not shown: GST, N-terminal, cleaved

In test [8] the target is T5, ARPP-16 S88E phosphomimicking mutant (human).
T5 construct: one residue left at the N-terminus after TEV cleavage; human ARPP-16, UniProt P56211-2, with S88E; numbers count on: ARPP-16 (P56211-2); source: E. coli BL21 Gold, purified (glutathione agarose, TEV cleavage, SEC); not shown: GST, N-terminal, cleaved
T5 sequence (Q14738 whole entry S88E): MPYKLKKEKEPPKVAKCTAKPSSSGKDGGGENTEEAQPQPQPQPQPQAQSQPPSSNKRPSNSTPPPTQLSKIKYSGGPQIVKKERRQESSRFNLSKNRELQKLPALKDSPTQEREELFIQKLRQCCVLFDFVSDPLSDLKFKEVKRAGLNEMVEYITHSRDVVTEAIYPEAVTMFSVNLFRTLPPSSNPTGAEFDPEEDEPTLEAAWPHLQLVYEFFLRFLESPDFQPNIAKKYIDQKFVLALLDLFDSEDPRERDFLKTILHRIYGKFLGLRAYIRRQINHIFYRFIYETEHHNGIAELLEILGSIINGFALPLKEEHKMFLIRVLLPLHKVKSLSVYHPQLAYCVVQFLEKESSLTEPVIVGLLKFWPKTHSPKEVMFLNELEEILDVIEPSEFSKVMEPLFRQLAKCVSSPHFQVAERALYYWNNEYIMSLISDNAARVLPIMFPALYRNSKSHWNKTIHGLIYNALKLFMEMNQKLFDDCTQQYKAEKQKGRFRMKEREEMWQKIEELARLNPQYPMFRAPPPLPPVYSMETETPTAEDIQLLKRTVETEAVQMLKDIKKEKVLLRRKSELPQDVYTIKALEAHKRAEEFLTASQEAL

T1 sequence (Q13362 whole entry): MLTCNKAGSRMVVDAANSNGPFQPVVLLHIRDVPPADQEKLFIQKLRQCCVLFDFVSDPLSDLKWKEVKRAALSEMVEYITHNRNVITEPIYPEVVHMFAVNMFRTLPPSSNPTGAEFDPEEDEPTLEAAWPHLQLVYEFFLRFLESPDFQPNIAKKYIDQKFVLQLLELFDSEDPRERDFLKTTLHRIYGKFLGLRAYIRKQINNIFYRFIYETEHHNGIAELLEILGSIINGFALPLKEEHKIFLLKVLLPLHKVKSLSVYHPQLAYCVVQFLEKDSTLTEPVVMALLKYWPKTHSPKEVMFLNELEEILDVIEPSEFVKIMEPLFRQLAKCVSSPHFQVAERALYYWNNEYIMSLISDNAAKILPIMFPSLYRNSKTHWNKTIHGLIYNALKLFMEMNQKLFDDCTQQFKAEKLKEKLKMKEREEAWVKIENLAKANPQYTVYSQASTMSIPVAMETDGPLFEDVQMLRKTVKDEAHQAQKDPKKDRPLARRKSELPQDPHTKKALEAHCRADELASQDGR
T2 sequence (P30153 whole entry): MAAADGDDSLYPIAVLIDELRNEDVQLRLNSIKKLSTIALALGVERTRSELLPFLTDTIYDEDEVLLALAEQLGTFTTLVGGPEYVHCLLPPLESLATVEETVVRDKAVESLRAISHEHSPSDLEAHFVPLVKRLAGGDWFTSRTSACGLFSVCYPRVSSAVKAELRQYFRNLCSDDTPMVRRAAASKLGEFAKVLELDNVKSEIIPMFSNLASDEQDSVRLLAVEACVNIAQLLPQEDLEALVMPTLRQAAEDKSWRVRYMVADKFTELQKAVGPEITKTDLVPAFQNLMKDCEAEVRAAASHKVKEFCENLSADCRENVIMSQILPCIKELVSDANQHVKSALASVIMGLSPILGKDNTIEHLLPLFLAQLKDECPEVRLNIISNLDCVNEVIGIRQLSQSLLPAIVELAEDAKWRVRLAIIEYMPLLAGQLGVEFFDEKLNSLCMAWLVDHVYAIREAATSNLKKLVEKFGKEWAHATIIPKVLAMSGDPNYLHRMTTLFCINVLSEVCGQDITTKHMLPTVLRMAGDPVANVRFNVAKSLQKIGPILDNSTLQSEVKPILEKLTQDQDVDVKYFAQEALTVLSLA

B1: cAMP-regulated phosphoprotein 19 (ARPP-19), wild type (natural protein)
chain: MSAEVPEAASAEEQKEMEDKVTSPEKAEEAKLKARYPHLGQKPGGSDFLRKRLQKGQKYFDSGDYNMAKAKMKNKQLPTAAPDKTEVTGDHIPTPQDLPQRKPSLVASKLAG
modifications: 15N-labelled in the NMR titration
As a reminder, the Kd is the concentration at which binding is half-saturated. Regarding B1, the Kd in test [1] is 430 µM; in test [2], > 800 µM; in test [3], 470 µM; in test [4] it was > 1300 µM; in test [5] it was 7.9 µM.

B2: ARPP-19 S104E phosphomimicking mutant (natural protein)
chain: MSAEVPEAASAEEQKEMEDKVTSPEKAEEAKLKARYPHLGQKPGGSDFLRKRLQKGQKYFDSGDYNMAKAKMKNKQLPTAAPDKTEVTGDHIPTPQDLPQRKPELVASKLAG
For B2, the Kd in test [1] came to 195 µM; in test [3] it was 85 µM; in test [4], 320 µM; in test [5], 6.1 µM.

B3: ARPP-19 S62E phosphomimicking mutant (natural protein)
chain: MSAEVPEAASAEEQKEMEDKVTSPEKAEEAKLKARYPHLGQKPGGSDFLRKRLQKGQKYFDEGDYNMAKAKMKNKQLPTAAPDKTEVTGDHIPTPQDLPQRKPSLVASKLAG
On to B3, for which the Kd in test [1] is 95 µM; in test [2], > 700 µM; in test [3], 110 µM; in test [4], 195 µM; in test [5] it was 7.5 µM.

For the molecule B4, the values for the Kd in test [6], in test [7] and in test [8] were > 700 µM, 110 µM and 40.7 µM, respectively.

Turning to B5, the dissociation constant (Kd) was > 500 µM in test [6] and 250 µM in test [7].
